Consider 2 molecules from paper PMC4734654 (Nature, 2015).

Data set [1] has as its target OsSWEET2b, crystallisation construct (C-terminal 15 residues removed, reductively methylated) (Oryza sativa). The data set can be described thus: crystal structure.
Data set [2] deals with the molecule itself. The data set can be described thus: cross-linking.

For orientation: stoichiometry N means the number of molecules, sites or subunits per partner or assembly. In data set [1], “OsSWEET2b, crystallisation construct (C-terminal 15 residues removed, reductively methylated) (natural protein)” registered a stoichiometry N of 3.

B1: OsSWEET2b, purified in DDM for glutaraldehyde cross-linking (natural protein)
chain: MDSLYDISCFAAGLAGNIFALALFLSPVTTFKRILKAKSTERFDGLPYLFSLLNCLICLWYGLPWVADGRLLVATVNGIGAVFQLAYICLFIFYADSRKTRMKIIGLLVLVVCGFALVSHASVFFFDQPLRQQFVGAVSMASLISMFASPLAVMGVVIRSESVEFMPFYLSLSTFLMSASFALYGLLLRDFFIYFPNGLGLILGAMQLALYAYYSSNSLEVLFQ
In the case of B1, the “stoichiometry N” value in data set [2] was 3.
